One block for each substance: values may come before it.
Experiments:
[1] = biological target: V97M SOD1 (human) (UniProt P00441); assay: SEC; metal-free (apo) form at time zero, before incubation; gel filtration chromatography
[2] = biological target: V97M SOD1 (human) (UniProt P00441); assay: SEC; zinc-reconstituted form; gel filtration chromatography; 100 µM (as dimer), 20 mM phosphate pH 7; no larger species also after more than a month at 37°C
[3] = biological target: T54R SOD1 (human) (UniProt P00441); assay: SEC; metal-free (apo) form at time zero, before incubation; gel filtration chromatography
[4] = biological target: T54R SOD1 (human) (UniProt P00441); assay: SEC; zinc-reconstituted form; gel filtration chromatography; 100 µM (as dimer), 20 mM phosphate pH 7; no larger species also after more than a month at 37°C
[5] = biological target: L144F SOD1 (human) (UniProt P00441); assay: SEC; metal-free (apo) form at time zero, before incubation; gel filtration chromatography
[6] = biological target: L144F SOD1 (human) (UniProt P00441); assay: SEC; zinc-reconstituted form; gel filtration chromatography; 100 µM (as dimer), 20 mM phosphate pH 7; no larger species also after more than a month at 37°C
[7] = biological target: I35T SOD1 (human) (UniProt P00441); assay: SEC; metal-free (apo) form at time zero, before incubation; gel filtration chromatography
[8] = biological target: I35T SOD1 (human) (UniProt P00441); assay: SEC; zinc-reconstituted form; gel filtration chromatography; 100 µM (as dimer), 20 mM phosphate pH 7; no larger species also after more than a month at 37°C
[9] = biological target: V87M SOD1 (human) (UniProt P00441); assay: SEC; metal-free (apo) form at time zero, before incubation; gel filtration chromatography
[10] = biological target: V87M SOD1 (human) (UniProt P00441); assay: SEC; zinc-reconstituted form; gel filtration chromatography; 100 µM (as dimer), 20 mM phosphate pH 7; no larger species also after more than a month at 37°C
[11] = biological target: I113T SOD1 (human) (UniProt P00441); assay: SEC; metal-free (apo) form at time zero, before incubation; gel filtration chromatography
[12] = biological target: I113T SOD1 (human) (UniProt P00441); assay: SEC; zinc-reconstituted form; gel filtration chromatography; 100 µM (as dimer), 20 mM phosphate pH 7; no larger species also after more than a month at 37°C
[13] = biological target: L67V SOD1 (human) (UniProt P00441); assay: SEC; metal-free (apo) form at time zero, before incubation; gel filtration chromatography
[14] = biological target: L67V SOD1 (human) (UniProt P00441); assay: SEC; zinc-reconstituted form; gel filtration chromatography; 100 µM (as dimer), 20 mM phosphate pH 7; no larger species also after more than a month at 37°C
[15] = biological target: D90A SOD1 (human) (UniProt P00441); assay: SEC; metal-free (apo) form at time zero, before incubation; gel filtration chromatography
[16] = biological target: D90A SOD1 (human) (UniProt P00441); assay: SEC; zinc-reconstituted form; gel filtration chromatography; 100 µM (as dimer), 20 mM phosphate pH 7; no larger species also after more than a month at 37°C
[17] = biological target: I113F SOD1 (human) (UniProt P00441); assay: SEC; metal-free (apo) form at time zero, before incubation; gel filtration chromatography
[18] = biological target: I113F SOD1 (human) (UniProt P00441); assay: SEC; zinc-reconstituted form; gel filtration chromatography; 100 µM (as dimer), 20 mM phosphate pH 7; no larger species also after more than a month at 37°C
[19] = biological target: G93A SOD1 (human) (UniProt P00441); assay: SEC; metal-free (apo) form at time zero, before incubation; gel filtration chromatography
[20] = biological target: G93A SOD1 (human) (UniProt P00441); assay: SEC; zinc-reconstituted form; gel filtration chromatography; 100 µM (as dimer), 20 mM phosphate pH 7; no larger species also after more than a month at 37°C
[21] = biological target: G93D SOD1 (human) (UniProt P00441); assay: SEC; metal-free (apo) form at time zero, before incubation; gel filtration chromatography
[22] = biological target: G93D SOD1 (human) (UniProt P00441); assay: SEC; zinc-reconstituted form; gel filtration chromatography; 100 µM (as dimer), 20 mM phosphate pH 7; no larger species also after more than a month at 37°C

stoichiometry N [1]: 2 | stoichiometry N [2]: 2
Substance: V97M SOD1 (from UniProt P00441 8-154) (enzyme)

stoichiometry N [3]: 2 | stoichiometry N [4]: 2
Substance: T54R SOD1 (from UniProt P00441 8-154) (enzyme)

stoichiometry N [5]: 2 | stoichiometry N [6]: 2
Substance: L144F SOD1 (from UniProt P00441 8-154) (enzyme)

stoichiometry N [7]: 2 | stoichiometry N [8]: 2
Substance: I35T SOD1 (from UniProt P00441 8-154) (enzyme)

stoichiometry N [9]: 2 | stoichiometry N [10]: 2
Substance: V87M SOD1 (from UniProt P00441 8-154) (enzyme)

stoichiometry N [11]: 2 | stoichiometry N [12]: 2
Substance: I113T SOD1 (from UniProt P00441 8-154) (enzyme)

stoichiometry N [13]: 2 | stoichiometry N [14]: 2
Substance: L67V SOD1 (from UniProt P00441 8-154) (enzyme)

stoichiometry N [15]: 2 | stoichiometry N [16]: 2
Substance: D90A SOD1 (from UniProt P00441 8-154) (enzyme)

stoichiometry N [17]: 2 | stoichiometry N [18]: 2
Substance: I113F SOD1 (from UniProt P00441 8-154) (enzyme)

stoichiometry N [19]: 2 | stoichiometry N [20]: 2
Substance: G93A SOD1 (from UniProt P00441 8-154) (enzyme)

stoichiometry N [21]: 2 | stoichiometry N [22]: 2
Substance: G93D SOD1 (from UniProt P00441 8-154) (enzyme)

Reference: publication PMC2250751
